How the values were obtained:
Conditions in all cases: label: Alexa680 at 5' and 3'
hPUF_MT(R8→R5) = biological target: T1, hPUF_MT(R8→R5) (UniProt Q14671 SEQ:1-349); test: EMSA; substantially no binding
T1 chain: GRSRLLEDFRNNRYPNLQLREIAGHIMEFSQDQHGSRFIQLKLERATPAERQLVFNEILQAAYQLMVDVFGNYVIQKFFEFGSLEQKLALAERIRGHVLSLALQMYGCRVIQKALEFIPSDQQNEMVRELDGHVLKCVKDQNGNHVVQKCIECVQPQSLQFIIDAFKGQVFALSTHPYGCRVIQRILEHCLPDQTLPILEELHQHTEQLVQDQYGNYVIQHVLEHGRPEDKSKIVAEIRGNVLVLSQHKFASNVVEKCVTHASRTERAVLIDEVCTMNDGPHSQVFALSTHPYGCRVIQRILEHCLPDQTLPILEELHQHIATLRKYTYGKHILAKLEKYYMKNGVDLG

[1] = biological target: T2, hPUF_MT(R8_N12C, R3→R5, R4→R6) (R8 repeat N12C); test: EMSA; no binding
T2 chain: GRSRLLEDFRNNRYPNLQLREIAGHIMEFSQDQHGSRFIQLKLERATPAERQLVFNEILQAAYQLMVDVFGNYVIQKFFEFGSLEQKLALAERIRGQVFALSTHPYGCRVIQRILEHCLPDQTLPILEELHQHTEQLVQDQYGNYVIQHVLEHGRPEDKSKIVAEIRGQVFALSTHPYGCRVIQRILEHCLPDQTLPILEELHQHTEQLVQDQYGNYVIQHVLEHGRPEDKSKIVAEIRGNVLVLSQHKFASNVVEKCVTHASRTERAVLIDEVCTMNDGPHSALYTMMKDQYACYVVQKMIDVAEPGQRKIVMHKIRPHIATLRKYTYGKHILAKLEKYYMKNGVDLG

[2] = biological target: T3, hPUF_MT(R8_N12S, R3→R5, R4→R6) (R8 repeat N12S); test: EMSA; no binding
T3 chain: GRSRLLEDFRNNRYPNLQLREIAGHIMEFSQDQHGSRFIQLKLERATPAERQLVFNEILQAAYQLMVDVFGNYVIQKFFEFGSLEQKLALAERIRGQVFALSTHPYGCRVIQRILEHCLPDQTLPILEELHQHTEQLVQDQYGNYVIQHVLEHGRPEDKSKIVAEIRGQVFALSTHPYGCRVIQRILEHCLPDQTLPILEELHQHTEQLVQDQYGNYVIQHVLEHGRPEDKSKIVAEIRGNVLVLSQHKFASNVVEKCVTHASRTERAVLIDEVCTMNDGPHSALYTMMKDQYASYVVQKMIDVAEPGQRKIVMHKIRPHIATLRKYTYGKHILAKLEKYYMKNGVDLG

hPUF_MT(R3→R5, R4→R6) [3] = biological target: T4, hPUF_MT(R3→R5, R4→R6); test: EMSA; binds U exclusively at R8 position
T4 chain: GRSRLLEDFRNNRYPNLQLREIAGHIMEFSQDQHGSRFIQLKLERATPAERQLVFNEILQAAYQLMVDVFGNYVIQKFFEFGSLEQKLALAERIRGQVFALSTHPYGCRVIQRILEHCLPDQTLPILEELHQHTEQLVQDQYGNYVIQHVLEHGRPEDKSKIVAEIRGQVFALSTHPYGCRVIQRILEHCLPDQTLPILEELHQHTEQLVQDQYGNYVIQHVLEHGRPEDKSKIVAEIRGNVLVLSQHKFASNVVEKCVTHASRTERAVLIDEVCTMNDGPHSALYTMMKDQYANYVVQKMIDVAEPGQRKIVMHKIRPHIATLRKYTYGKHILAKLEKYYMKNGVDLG

[4] = biological target: T5, hPUF_MT(1-2-6-5-6-5-6-7-8); test: EMSA
T5 chain: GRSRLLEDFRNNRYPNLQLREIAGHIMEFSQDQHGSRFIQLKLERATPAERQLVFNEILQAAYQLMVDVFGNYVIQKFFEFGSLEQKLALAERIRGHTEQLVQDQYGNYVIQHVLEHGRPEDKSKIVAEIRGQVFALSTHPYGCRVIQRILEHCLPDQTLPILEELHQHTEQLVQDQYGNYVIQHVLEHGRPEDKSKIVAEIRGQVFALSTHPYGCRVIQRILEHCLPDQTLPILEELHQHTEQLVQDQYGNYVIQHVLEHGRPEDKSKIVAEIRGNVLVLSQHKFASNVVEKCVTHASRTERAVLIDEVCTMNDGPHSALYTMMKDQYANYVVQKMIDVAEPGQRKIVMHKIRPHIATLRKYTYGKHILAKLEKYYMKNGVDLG

[5] = biological target: T6, hPUF_MT(1-2-5-5-6-5-6-7-8); test: EMSA
T6 chain: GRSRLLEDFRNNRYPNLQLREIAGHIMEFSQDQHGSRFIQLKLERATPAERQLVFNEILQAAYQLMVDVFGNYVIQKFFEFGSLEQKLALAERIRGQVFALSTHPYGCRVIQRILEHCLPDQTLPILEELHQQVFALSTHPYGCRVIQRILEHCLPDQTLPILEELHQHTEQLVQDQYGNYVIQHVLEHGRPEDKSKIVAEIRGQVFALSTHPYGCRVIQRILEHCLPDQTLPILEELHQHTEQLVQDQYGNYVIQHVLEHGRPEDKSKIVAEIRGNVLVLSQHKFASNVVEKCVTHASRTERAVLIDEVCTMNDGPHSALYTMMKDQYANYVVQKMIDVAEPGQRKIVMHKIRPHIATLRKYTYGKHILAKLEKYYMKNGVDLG

[6] = biological target: T7, hPUF_MT(1-2-5-6-5-6-6-7-8); test: EMSA
T7 chain: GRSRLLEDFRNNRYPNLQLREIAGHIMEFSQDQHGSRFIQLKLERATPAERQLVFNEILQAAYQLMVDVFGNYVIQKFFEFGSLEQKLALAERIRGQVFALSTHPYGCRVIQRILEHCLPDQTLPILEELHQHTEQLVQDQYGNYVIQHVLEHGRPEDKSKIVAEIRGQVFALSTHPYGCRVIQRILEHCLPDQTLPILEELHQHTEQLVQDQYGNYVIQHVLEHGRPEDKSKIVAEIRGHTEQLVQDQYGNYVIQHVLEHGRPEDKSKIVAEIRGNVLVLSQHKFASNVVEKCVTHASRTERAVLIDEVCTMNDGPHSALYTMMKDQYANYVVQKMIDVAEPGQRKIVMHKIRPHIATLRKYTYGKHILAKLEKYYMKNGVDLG

[7] = biological target: T8, hPUF_MT(R1_S12N, R3→R5, R4→R6) (R1 repeat S12N); test: EMSA; U>C>>G=A
T8 chain: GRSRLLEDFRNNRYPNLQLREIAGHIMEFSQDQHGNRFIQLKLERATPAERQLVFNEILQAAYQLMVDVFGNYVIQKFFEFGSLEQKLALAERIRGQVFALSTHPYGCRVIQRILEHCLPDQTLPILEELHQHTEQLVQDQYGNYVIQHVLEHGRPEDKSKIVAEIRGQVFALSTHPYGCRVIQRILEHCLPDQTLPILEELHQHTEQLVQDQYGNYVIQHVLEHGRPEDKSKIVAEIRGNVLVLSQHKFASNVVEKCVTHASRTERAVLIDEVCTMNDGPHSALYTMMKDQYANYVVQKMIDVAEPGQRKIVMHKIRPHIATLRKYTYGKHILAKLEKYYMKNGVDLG

hPUF_MT(R3→R5, R4→R6) [8] = biological target: T4, hPUF_MT(R3→R5, R4→R6); test: EMSA; U=C>A>G at R1 position; backbone printed as R4→R5
hPUF_MT(R3→R5, R4→R6) [9] = biological target: T4, hPUF_MT(R3→R5, R4→R6); test: EMSA; U=C>A>G at R1 position
[10] = biological target: T9, hPUF_MT(R1_Q16R, R3→R5, R4→R6) (R1 repeat Q16R); test: EMSA; C>U>>G>A; printed as Q16E (C recognition)
T9 chain: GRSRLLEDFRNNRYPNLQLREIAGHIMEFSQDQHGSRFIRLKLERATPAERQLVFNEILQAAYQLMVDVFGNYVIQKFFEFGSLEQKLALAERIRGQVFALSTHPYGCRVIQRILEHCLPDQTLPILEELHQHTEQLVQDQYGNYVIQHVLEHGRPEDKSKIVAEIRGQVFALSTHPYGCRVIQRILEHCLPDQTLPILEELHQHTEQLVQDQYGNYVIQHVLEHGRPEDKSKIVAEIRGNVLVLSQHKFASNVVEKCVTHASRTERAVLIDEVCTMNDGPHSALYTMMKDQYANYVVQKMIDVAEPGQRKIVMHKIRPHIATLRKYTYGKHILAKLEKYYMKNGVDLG

[11] = biological target: T10, hPUF_MT(R1_Q16E, R3→R5, R4→R6) (R1 repeat Q16E); test: EMSA; G>>U=C
T10 chain: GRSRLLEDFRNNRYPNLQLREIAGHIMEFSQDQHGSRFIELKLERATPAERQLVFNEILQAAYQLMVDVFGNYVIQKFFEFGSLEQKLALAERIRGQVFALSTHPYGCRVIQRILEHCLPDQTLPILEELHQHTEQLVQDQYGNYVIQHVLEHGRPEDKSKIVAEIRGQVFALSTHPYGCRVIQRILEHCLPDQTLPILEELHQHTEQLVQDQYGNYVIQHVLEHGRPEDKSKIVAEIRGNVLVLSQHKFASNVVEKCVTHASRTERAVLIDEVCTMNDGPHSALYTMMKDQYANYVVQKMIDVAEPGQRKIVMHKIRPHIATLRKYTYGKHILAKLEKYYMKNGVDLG

[12] = biological target: T11, hPUF_MT(R7_S12C,E16Q, R3→R5, R4→R6) (R7 repeat S12C,E16Q); test: EMSA; U>C
T11 chain: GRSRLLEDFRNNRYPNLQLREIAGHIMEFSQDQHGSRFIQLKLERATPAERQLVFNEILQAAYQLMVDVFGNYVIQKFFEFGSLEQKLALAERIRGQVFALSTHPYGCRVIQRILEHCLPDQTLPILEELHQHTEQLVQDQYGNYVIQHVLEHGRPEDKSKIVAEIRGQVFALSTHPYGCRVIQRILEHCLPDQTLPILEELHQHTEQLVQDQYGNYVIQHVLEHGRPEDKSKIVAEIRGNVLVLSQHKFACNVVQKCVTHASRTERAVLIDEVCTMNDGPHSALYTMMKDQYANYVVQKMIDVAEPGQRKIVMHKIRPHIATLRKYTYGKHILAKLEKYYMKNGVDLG

[13] = biological target: T12, hPUF_MT(R7_S12N,E16Q, R3→R5, R4→R6) (R7 repeat S12N,E16Q); test: EMSA; binds U exclusively
T12 chain: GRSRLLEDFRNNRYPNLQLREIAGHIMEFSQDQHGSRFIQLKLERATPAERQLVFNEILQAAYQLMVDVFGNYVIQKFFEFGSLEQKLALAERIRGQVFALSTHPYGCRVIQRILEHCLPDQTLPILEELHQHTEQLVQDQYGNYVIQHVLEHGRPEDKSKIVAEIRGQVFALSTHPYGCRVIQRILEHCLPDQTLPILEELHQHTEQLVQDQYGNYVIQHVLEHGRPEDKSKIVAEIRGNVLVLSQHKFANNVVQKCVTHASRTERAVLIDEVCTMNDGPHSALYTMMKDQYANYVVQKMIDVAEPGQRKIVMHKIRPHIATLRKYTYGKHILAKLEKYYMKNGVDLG

hPUF_MT(R3→R5, R4→R6) [14] = biological target: T4, hPUF_MT(R3→R5, R4→R6); test: EMSA; binds G exclusively at R7 position
[15] = biological target: T13, hPUF_MT(R7_E16R, R3→R5, R4→R6) (R7 repeat E16R); test: EMSA; binds C and U
T13 chain: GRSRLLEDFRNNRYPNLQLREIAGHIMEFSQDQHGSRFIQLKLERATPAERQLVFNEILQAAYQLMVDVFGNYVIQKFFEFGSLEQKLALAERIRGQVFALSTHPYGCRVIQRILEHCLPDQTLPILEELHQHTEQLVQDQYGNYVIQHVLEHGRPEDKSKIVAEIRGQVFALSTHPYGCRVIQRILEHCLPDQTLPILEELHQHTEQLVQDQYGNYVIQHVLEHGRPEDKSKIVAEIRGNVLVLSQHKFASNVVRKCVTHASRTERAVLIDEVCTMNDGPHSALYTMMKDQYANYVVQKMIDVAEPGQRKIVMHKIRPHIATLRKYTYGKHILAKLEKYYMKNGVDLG

CCAGAAUAGUAUAUAUUCG (ssRNA) [OTS-1825]: no binding (hPUF_MT(R8→R5)); no binding [1]; no binding [2]. CCAGAAUAGUAUAUAUUCG (ssRNA) [OTS-1825]: no binding (hPUF_MT(R3→R5, R4→R6) [3]).

With CCAGAAUUGUAUAUUAUUCG (ssRNA) [OTS-2080] the binding signal [4] was ~3 fold of WT.

In the case of CCAGAAUUGUAUAAUAUUCG (ssRNA) [OTS-2081], the binding signal [5] is reported as ~3 fold of WT.

CCAGAAUUGUUAUAUAUUCG (ssRNA) [OTS-2082] was tested, and the binding signal [6] was ~3 fold of WT.

CCAGAAUUGUAUAUUUUCG (ssRNA) [OTS-2022]: binds [7]; binds (hPUF_MT(R3→R5, R4→R6) [8]).

CCAGAAUUGUAUAUCUUCG (ssRNA) [OTS-2021]: binds (hPUF_MT(R3→R5, R4→R6) [9]); binds [10].

CCAGAAUUGUAUAUGUUCG (ssRNA) [OTS-2020]: binds [11].

CCAGAAUUUUAUAUAUUCG (ssRNA) [OTS-2032]: binds [12]; binds [13]; no binding (hPUF_MT(R3→R5, R4→R6) [14]). CCAGAAUUUUAUAUAUUCG (ssRNA) [OTS-2032]: binds [15].
